In publication PMC2064081:

Target: MIM/IMD-L (IRSp53/MIM domain of mouse missing-in-metastasis, longer splice variant) (mouse) (UniProt Q8R1S4)
Assay: SPR

Chain of MIM/IMD-L (IRSp53/MIM domain of mouse missing-in-metastasis, longer splice variant) (mouse) (Q8R1S4 1-250, change not shown): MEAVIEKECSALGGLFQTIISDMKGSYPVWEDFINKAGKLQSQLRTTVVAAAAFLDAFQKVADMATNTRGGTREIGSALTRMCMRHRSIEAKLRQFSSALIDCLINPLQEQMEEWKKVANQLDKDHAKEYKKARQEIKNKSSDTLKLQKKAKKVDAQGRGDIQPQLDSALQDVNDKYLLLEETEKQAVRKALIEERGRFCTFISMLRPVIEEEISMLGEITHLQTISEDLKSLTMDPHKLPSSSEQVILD

Work on “GST-Rac (V12), dominant-active Rac (from UniProt P63000 1-192) (natural protein)” yielded an equilibrium binding level relative to MIM/IMD-S of 10 to 15%.
